Measured values from patent publication CN117425675A (XINSHI BIOPHARMACEUTICAL CO LTD, dated 2024).

T1: human TNFR2 expressed on cells (stably overexpressed on HEK293T, CHO-K1 or Jurkat cells; endogenous on THP1) (human (Homo sapiens), UniProt P20333 23-461)
T1 construct: also called 人TNFR2; hTNFR2
T1 sequence: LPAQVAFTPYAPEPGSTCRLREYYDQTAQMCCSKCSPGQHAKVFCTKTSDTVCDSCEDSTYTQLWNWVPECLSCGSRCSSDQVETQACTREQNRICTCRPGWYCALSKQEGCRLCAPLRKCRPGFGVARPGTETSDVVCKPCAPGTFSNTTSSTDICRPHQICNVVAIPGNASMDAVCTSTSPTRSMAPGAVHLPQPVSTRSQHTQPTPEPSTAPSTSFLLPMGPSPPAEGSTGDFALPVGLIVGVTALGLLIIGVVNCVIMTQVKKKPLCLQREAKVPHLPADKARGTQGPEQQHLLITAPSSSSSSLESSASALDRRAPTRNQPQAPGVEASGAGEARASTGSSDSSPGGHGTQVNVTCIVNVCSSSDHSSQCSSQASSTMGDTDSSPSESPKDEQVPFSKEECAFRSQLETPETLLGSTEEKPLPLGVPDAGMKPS

T2: mouse TNFR2 stably overexpressed on HEK293T cells (mouse (Mus musculus), UniProt P25119 23-474)
T2 construct: also called 鼠TNFR2
T2 sequence: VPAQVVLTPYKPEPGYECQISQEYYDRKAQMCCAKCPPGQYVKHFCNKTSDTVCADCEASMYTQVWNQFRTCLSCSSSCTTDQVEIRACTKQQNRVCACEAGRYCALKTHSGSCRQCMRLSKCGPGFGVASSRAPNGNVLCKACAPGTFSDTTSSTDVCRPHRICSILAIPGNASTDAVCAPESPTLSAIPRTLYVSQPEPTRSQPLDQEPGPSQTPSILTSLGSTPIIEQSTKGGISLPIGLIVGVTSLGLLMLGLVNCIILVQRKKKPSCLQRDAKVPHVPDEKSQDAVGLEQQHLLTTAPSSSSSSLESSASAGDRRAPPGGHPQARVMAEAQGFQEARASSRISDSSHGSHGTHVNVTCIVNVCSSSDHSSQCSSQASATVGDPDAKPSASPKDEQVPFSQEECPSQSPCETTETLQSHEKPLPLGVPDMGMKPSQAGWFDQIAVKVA

T3: human TNFR1 stably overexpressed on CHO-K1 cells (human (Homo sapiens), UniProt P19438 30-455)
T3 construct: also called 人TNFR1; TNFRSF1A
T3 sequence: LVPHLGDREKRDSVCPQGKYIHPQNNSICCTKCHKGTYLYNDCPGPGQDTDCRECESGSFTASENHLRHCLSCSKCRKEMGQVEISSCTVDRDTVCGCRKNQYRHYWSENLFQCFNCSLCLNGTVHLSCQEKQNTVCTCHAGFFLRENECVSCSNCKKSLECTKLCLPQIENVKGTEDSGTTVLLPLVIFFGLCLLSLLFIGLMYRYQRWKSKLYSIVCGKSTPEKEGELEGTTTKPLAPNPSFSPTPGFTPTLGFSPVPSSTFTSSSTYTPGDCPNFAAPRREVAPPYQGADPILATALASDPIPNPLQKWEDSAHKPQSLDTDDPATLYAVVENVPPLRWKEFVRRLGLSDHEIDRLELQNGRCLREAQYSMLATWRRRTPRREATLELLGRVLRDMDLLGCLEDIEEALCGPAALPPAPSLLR


Columns and labels:
[1] = molecular target: T1, human TNFR2 expressed on cells (stably …); test: binding to cells stably overexpressing human TNFR2 (flow cytometry / imaging; text says HEK293T, table title says CHO-K1)
[2] = molecular target: T2, mouse TNFR2 stably overexpressed on …; test: flow cytometry on HEK293T cells stably overexpressing mouse TNFR2
[3] = molecular target: T3, human TNFR1 stably overexpressed on …; test: flow cytometry on CHO-K1 cells stably overexpressing human TNFR1

EC50 [1]	binding result [2]	binding result [3]	Binder
0.11 nM	no binding (tested: 10μg/mL)	no binding (tested: 10μg/mL)	R2_mAb-4 (antibody, V domains shown, The mouse IgG2a chimera was used only in the tumour models; also called R2-4) VH: QVQLVQSGAEVRKPGASVKVSCKASGYTFTSYSVTWVRQAPGQGLEWMGWINAFSGNTHYAQNLQDRVTMTTDTSTSTAYMELRSLRSDDTAVYYCAREEGSGSYEDYYGMDVWGQGTTVTVSS VL: not shown
0.35 nM	no binding (tested: 10μg/mL)	no binding (tested: 10μg/mL)	R2_mAb-2 (antibody, V domains shown, also called R2-2) VH: QVQLVQSGPEVKKPGASVKVSCKASGYTFTNYGISWVRQAPGQGLEWMGWINAYNGNTNYAQKLQGRVTMTTDTSTSTAYMELRSLRSDDTAVYYCARDGGYGSGTYHNDYYYYYGMDVWGQGTTVTVSS VL: EIVLTQSPDFQSMTPEEKVTITCRASQSIGSNLHWYQQKPDQSPKLLIKFASQSISGVPSRFSGSGSGTDFTLTINSLEAEDAATYYCHQSSSLPFTFGPGTKVDIK
0.38 nM	no binding (tested: 10μg/mL)	no binding (tested: 10μg/mL)	R2_mAb-3 (antibody, V domains shown, also called R2-3) VH: QVQLQESGPGLVKPSETLSLTCTVSGGSISSYYWSWIRQAPGKGLEWIGYIYYSGSTNYNPSLKSRVTISVDTSKNQFSLKLSSVTAADTAVYYCARDDGSSDYGMDVWGQGTTVTVSS VL: AIQLTQSPSSLSASVGDRVTITCRASQGISSALAWYQQKPGKAPKLLIYDASSLESGVPSRFTGSGTDFTLTISSLQPEDFATYYCQQFNNYMYTFGQGTKLEIK
0.1 nM	no binding (tested: 10μg/mL)	no binding (tested: 10μg/mL)	R2_mAb-5 (antibody, V domains shown, The mouse IgG2a, IgG1 and IgG1 D265A chimeras were used only in the tumour models; also called R2-5) VH: QVQLVQSGAEVKKPGASVTVSCKASGYTFSTYGIIWVRQAPGQGLEWMGWISAFNGNANSAQKLQDRVTMTTDTSTSTAYMELRSLRSDDTAVYYCARGEDFFDYWGQGTLVTVSS VL: DIVMTQTPLSSPVTLGQPASISCRSSQSLVHSDGNTYLSWLQQRPGQPPRLLIYKVSSRFSGVPDRFSGSGAGTDFTLKISRVEAEDVGVYYCTQSTQFPFTFGRGTKLEIK
0.14 nM	no binding (tested: 10μg/mL)	no binding (tested: 10μg/mL)	R2_mAb-6 (antibody, V domains shown, also called R2-6) VH: QVQLVQSGAEVKKPGASVKVSCKASGYTFLSYGLSWVRQAPGQGLEWMGWINAYNGNTNYAQNLQDRVTMTTDTSTSTAYMELRSLRSDDMAVYYCARWDILTAYYSSDAFDIWGQGTMVTVSS VL: DIVMTQTPLSSPVTLGQPASISCRSSQSLVHSDGNTYLNWLQQRPGQPPRLLIYKVSNRFSGVPDRFSGSGAGTDFTLKISRVEAEDVGVYYCTQTTQFPITFGQGTRLEIK
0.1 nM	no binding (tested: 10μg/mL)	no binding (tested: 10μg/mL)	R2_mAb-1 (antibody, V domains shown, The VH/VL pair is read from parallel lists; also called R2-1) VH: QVQLVESGGGVVQPGRSLRLSCAASGFTFSSYGMHWVRQAPGKGLEWVAVIWFDEDNKDYADSVKGRFTISRDNSKNTLYLQMSSLRAEDTAVYYCARDNDILTGYYYYYGMDVWGQGTTVTVSS VL: DIQLTQSPSFLSASVGDRVTITCRASQDISSYLAWYQQKPGKAPKLLIYAASTLQSGVPSRFSGSGSGTEFTLTISSLQPEDFATYYCQQLNSYPPTFGQGTKVEIK
